3 molecules from article PMC3355227 can be followed below.

In assay [1] the target is Plk1 polo-box domain (PBD), purified protein of the fluorescence polarization assay. As to the kind of experiment: fluorescence polarisation.
Another assay has as its target HA-EGFP-Plk1, P53350. Nature of the assay: ELISA. The note with it: remark: other sources report otherwise. For orientation: An ELISA detects its analyte on a solid surface through an enzyme-linked reagent.

Where no end group is shown, it is not given here. [ ]: non-standard residue; d: D form. The star is where a group is joined. pT = C[C@@H](OP(=O)(O)O)[C@H](N)C(=O)O; Butyl(4-Ph) = c1ccc(CCCC*)cc1

For orientation: IC50 means the concentration at which inhibition is half-maximal.

Sequence of HA-EGFP-Plk1, P53350 (P53350 whole entry): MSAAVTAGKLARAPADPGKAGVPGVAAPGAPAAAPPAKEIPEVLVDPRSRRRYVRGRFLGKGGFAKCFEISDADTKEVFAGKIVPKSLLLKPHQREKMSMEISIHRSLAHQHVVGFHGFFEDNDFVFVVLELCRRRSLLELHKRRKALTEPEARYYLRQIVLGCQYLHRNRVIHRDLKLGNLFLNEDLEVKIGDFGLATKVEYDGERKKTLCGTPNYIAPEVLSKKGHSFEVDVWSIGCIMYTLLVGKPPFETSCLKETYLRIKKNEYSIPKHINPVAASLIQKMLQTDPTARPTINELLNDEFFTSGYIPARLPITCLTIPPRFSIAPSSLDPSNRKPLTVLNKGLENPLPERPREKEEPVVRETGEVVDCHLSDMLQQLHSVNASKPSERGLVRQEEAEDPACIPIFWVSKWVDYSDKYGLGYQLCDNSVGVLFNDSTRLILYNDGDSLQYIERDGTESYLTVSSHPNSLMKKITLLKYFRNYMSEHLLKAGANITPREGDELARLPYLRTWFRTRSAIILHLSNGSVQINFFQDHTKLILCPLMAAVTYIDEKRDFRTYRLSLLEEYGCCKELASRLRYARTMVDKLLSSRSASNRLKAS

B1: peptide 8 (peptide)
peptide: P(Butyl(4-Ph))LHS[pT]
B1 had an IC50 in assay [1] of 38 nM.

B2: peptide 7(S4A) (peptide)
peptide: P(Butyl(4-Ph))LHA[pT]
For the molecule B2, the IC50 in assay [1] is 4150 nM; with HA-EGFP-Plk1, P53350, 43000 nM.

B3: peptide GPMQSpTPLNG-OH (9) (peptide)
peptide: GPMQS[pT]PLNG-OH
modifications: N-terminus assumed
SMILES: CSCC[C@H](NC(=O)[C@@H]1CCCN1C(=O)CN)C(=O)N[C@@H](CCC(N)=O)C(=O)N[C@@H](CO)C(=O)N[C@H](C(=O)N1CCC[C@H]1C(=O)N[C@@H](CC(C)C)C(=O)N[C@@H](CC(N)=O)C(=O)NCC(=O)O)[C@@H](C)OP(=O)(O)O
Consider B3, for which the IC50 in assay [1] stood at 1120 nM.
